The results in this text go back to patent US20260248837A1.

This assay has as its target human CXCR4 (human) (UniProt P61073). Put plainly: cell-based or functional assay.
Chain of UniProt P61073 (P61073 1-350): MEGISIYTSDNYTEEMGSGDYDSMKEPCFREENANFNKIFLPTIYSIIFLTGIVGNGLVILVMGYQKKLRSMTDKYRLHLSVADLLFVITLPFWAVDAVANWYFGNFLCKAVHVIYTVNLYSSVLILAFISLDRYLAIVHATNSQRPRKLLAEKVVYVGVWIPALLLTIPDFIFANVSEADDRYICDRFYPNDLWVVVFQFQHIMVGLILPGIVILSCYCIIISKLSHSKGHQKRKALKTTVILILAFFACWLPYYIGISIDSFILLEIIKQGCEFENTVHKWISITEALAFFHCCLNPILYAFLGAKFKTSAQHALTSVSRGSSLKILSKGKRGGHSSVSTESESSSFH

On to “human CXCL12 (human CXCL12α, L-CXCL12) (ligand)”, for which the migration of Jurkat cells (chemotaxis assay), half-maximal stimulation came to 0.3 nM and the migration of Nalm-6 cells (chemotaxis assay), half-maximal stimulation turned out to be 0.3 nM.
